Measured values as given in publication doi:10.1101/2023.02.03.527086.

Target: T1, interferon regulatory factor 3 (IRF3) (human (endogenous in AC16)), Q14653
T1 chain: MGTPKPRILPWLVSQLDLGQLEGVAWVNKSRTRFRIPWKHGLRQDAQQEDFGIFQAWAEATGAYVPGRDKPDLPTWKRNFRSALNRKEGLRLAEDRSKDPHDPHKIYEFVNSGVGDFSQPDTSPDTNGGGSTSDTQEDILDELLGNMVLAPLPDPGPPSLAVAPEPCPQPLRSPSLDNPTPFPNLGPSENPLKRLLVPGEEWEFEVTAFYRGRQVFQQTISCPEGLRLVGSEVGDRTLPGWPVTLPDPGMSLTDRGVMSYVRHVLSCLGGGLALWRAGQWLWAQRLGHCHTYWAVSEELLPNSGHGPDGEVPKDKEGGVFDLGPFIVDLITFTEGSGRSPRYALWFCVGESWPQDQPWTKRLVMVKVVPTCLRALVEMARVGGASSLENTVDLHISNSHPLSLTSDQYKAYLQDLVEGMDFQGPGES
Test: native gel or EMSA
Details: remark: other sources report otherwise

B1: interferon regulatory factor 3 (IRF3), Q14653 1-427 (natural protein)
chain: T1 chain
stoichiometry N: 2
